Experimental data as given in patent publication US6824783.

Target: viral gp41 (HIV-1 transmembrane protein) of HIV-1IIIB (HIV-1 IIIB)
Assay: cell-based or functional assay

| Substance | Cell fusion (IC90) [µM] | HIV infectivity (IC90) [µM] |
| --- | --- | --- |
| M41 (maltose binding protein fused to the extracellular domain of HIV-1 gp41, residues 540-686) (from UniProt P03377 540-686) | > 50 | > 16 |
| M41-P (M41 with an Ile to Pro mutation at position 578) (from UniProt P03377 540-686) | 0.083 | 0.066 |
| M41-PΔ178 (M41-P from which the DP-178 region has been deleted; gp41 residues 540-642 with Ile578Pro) (from UniProt P03377 540-642) | > 50 | > 8 |
